The series can be described thus: yeast display, Sf9 membrane polyspecificity reagent, FACS + sequencing; frameworks hold sequencing errors. Summed up: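 Nanobodies from a synthetic yeast display library (Saccharomyces cerevisiae BJ5465), induced 36–48 hours with galactose, were stained 1 hour at 4 °C with 10% biotinylated, detergent-solubilized Sf9 membrane reagent, enriched on streptavidin microbeads, then FACS-sorted. Anti-HA (expression) and streptavidin (reagent binding) fluorescence set low and high (top ~1%) gates. Polyreactivity labels come from the gate of origin. Genes were colony-PCR amplified, MiSeq 2 × 250 sequenced and filtered by CDR length.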
As to “HVQLVESGGGLVHAGGSLRLSCAASGSILPKYAMGWYRQEPGKQRLLVATITWSGSSTYYADSVKGRFTISRDNAQNTVYLQMNSLKPEDTAVYYCAATGWSSFYYRFEYWGQGTQVTVSS”, the “polyreactivity (PSR sort gate)” value was “low polyreactivity”.
Regarding “HVQLVESGGGLVPAGGSLRLSCAASGSTFIGYARGWYRQAPGKERELVAAISWSGGRTYYADSVKGRFTISRDNAKNTVYLQMNSLKPEDTAVYYCNTVPYRISVQFNYWGQGTQVTVSS”, the “polyreactivity (PSR sort gate)” value is listed as “high polyreactivity”.
As for “HVQLVESGGGLVQAGCSLRLSCAASGSIFLRNTMGWYRQAPGKEREFVAAITKRGGTTYYADSVKGRFTMSRDNAKNTVYLQMNSLKPDDTAVYYCAKSYDNEYGYWGQGTQVTVSS”, the entry is “high polyreactivity”; as for “HVQLVESGGGLVQAGGILRLSCAASGSTFVKYAMGWYRQATGKERELVAAISSRGGRTYYADSVKGRFTISRDNAKNTVYLQMNSLKPEDTAVYYCNKGTRLDGEYDYWGQGTQVTVSS”, “high polyreactivity”; as for “HVQLVESGGGLVQAGGSLRISCAASGFTFRYYAMGWYRQAAGKEMELVAAITSSGGRTYYADSVKGRFTISRDNAKNTVYLQMNSLKPEDTAVYYCNAAYGYVSRVYYLIEHDYWGHGTQVTVSS”, “high polyreactivity”.
Consider “HVQLVESGGGLVQAGGSLRLNCAASGSTFKRNAMGWYRQATGKERELVAAISRSGGSTYYADSVKGRFTISRDNAKTTVYLQMNSLNPEDTAVYFCNALRGTASWRGYYWGQGTQVTVSS”, for which the “polyreactivity (PSR sort gate)” value is given as “high polyreactivity”.
Under “HVQLVESGGGLVQAGGSLRLRSAASGRIFYYNAMGWYRQAPGKERELVASISWDASSTYYADSVKGLFTISRDNAKNTVYLQMNSLKPEDTAVYYCNKIHLYRQYDYWGQGTQVTVSS” stands “low polyreactivity”; under “HVQLVESGGGLVQAGGSLRLSCAASGFIFPENAMGWYRQAPGKERELVAAIRTGGSTYYADSVKGRFTISRDNAKNTVYLQMNSLKPEDTAVYYCAARFHYEKYSYWYFDEDYWGQGTQVTVSS”, “high polyreactivity”.
Under “HVQLVESGGGLVQAGGSLRLSCAASGFIFQYYCMGWYRQATRKERELVAAIDSRGGSTYYADSVKGRFTISRDNAKNTVYLQMNSLNPADTAVYYCAAMGLYQGTLNHFYYWGQGTQVTVSS” stands “low polyreactivity”.
As for “HVQLVESGGGLVQAGGSLRLSCAASGFTFGWNDMGWYRQAPGKERELVAAITWSGGSTYYADSVKGRFTISRDNAKNTVYLQMNSLKPEDTAVYYCAAVVSDYVWRYEYWGQGTQVTVSS”, the entry is “low polyreactivity”.
As for “HVQLVESGGGLVQAGGSLRLSCAASGFTFWDYTMGWYRQAPGKERELVAAISSSGGGTYYADSVKGRFTISRDNAKNTVYLQMNSLKPEDTAVDYCNAVRFLDYWYPDTYGDWGQGTQVTLSS”, the “polyreactivity (PSR sort gate)” value is listed as “low polyreactivity”.
With “HVQLVESGGGLVQAGGSLRLSCAASGGIFRGYTMGWYRQAPGKETEFVAAITYGGGGTYYADSVKGRFTISRDNAKNTVYLQMNSLKPEDTAVYYCNADLSDVAVTDHDYWGQGTQVTVSS”, the “polyreactivity (PSR sort gate)” value is “low polyreactivity”.
As for “HVQLVESGGGLVQAGGSLRLSCAASGGIFSYYAMGWFRQAPGKERELVAAISSRGTNTHYADSVKGRFTISRDNAKNTVDLQMNSLKPEDTAVYYCAADKRASPIYDWGQGTQVTVSS”, the “polyreactivity (PSR sort gate)” value was “high polyreactivity”.
As to “HVQLVESGGGLVQAGGSLRLSCAASGGTFYTYVMGWYRPAPGKERELVAAISGSGGSTYYADSVKGRFTISRDNAKNTVYLQMNSLKPEDTAVYYCAAVLYYGDIPYYYWGQGTQVTVSS”, the “polyreactivity (PSR sort gate)” value was “high polyreactivity”.
Consider “HVQLVESGGGLVQAGGSLRLSCAASGIIFPIYAMGWYRQAARKERELVASISQSGASTYYADSVKGRFTISRDNAKNTVYLQMNSLNPEDTGVYYCAALNGVGPWQLSYEEFDYWGQGTQVTVSS”, for which the “polyreactivity (PSR sort gate)” value is given as “low polyreactivity”.
Under “HVQLVESGGGLVQAGGSLRLSCAASGIIFYQYAMGWYRQAPGKERELVATISSNGGATYADSVKGRFTISRDNAKNTVYLQMNSLKPEDTAVYYCNAGGRYHAPSGDYWGQGTQVTVSS” stands “low polyreactivity”.
As for “HVQLVESGGGLVQAGGSLRLSCAASGIIFYYYTMGWYRPGPRKERELLAWSGGNTYYADSVKGRFTISRDNAKNTVYLQMNSLKPEDTAVYYCNALAIWSDDWDHWISYADDYWGQGTQVTVSS”, the “polyreactivity (PSR sort gate)” value was “low polyreactivity”.
For “HVQLVESGGGLVQAGGSLRLSCAASGRISGANMGWDRQAPGKERELGAAISNGGSTNYADSVKGRFTISRANAKNTVYLQMNSLKPEDTAVYYCAKLGPRSYSSYRYDYWGQGTQVTVSS”, the “polyreactivity (PSR sort gate)” value is on record as “high polyreactivity”.
As to “HVQLVESGGGLVQAGGSLRLSCAASGRSFRYNAMGWYRQAPGKERELVAAITRSGGSTDYADSVKGRFTISRDNAKNTVNLQMNSLKPEDTAVYYCAKLQNGQWSTSRVPGDYQYNYWGQGTQVTVSS”, the “polyreactivity (PSR sort gate)” value is listed as “high polyreactivity”.
For the sequence “HVQLVESGGGLVQAGGSLRLSCAASGRTFPRYAMGWYRQAPGTERELVAAISVRAGITYYADSVKGRFTISRDNAKNTVYLQMNSLKPEDTAVYYCAKDLWTTSYDEGDYWGQGTQVTVSS”, the “polyreactivity (PSR sort gate)” value was “low polyreactivity”.
As for “HVQLVESGGGLVQAGGSLRLSCAASGRTFVVNAMGWYRQAPGTEREFVAAISYRGDSTYYAVSVKGRFTFSRDNSKNTVYLQMNSLKPEDTAVYYCAARVLGPGRRYYYWGQGTQVTVSS”, the entry is “high polyreactivity”; as for “HVQLVESGGGLVQAGGSLRLSCAASGSIFAQYAMGWYRQAPRKDRELLAAISRSTGRTYYADSVKGRFTISRDNAKNTVYLQMNSLKPEDNAVYYWNVVANRALSRSGYDYWGQGTQVTVSS”, “high polyreactivity”.
Consider “HVQLVESGGGLVQAGGSLRLSCAASGSIFKRYAMGWYTQAPGKERELVAAITSGGSTNYADSVKGRFTISRDNAKNTVYLQMNSLKPEDTAVYYCAAEHDYYPSNLDYWGQGTQVTVSS”, for which the “polyreactivity (PSR sort gate)” value is “low polyreactivity”.
“HVQLVESGGGLVQAGGSLRLSCAASGSIFSGNAMGWSRQAPGKERELVAAIDWSGDSTYYADSVKGRFTLSRDNAKNTVYLQMNSLKPEDTAVYYCNTVSFSWGYSAYDYWGQGTQVTVSS”: the “polyreactivity (PSR sort gate)” value is recorded as “low polyreactivity”.
“HVQLVESGGGLVQAGGSLRLSCAASGSISAVNTMGWYRQAPGKERELVATISYSTASTYYADSVKGRFTISRDNAKNTVYLQMNSLKPEDTAVYYCAADAYFDTWYDYWGQGTQVTVSS”: the “polyreactivity (PSR sort gate)” value is recorded as “low polyreactivity”.
Under “HVQLVESGGGLVQAGGSLRLSCAASGSTFFWYAMGWYRQATGKERELVAAISKTGGSTYYADSVKGRFTISRDNAQNTVYLQMNSLKPEDTAVYYCNAVRYASKAARSFDYWGQGTQVTVSS” stands “low polyreactivity”; under “HVQLVESGGGLVQAGGSLRLSCAASGSTFNINAMGWYRQAPGKETEFVAAINYRGGSTYYADSVKGRFTISRDNSKNTVYLQMNSLKPEDTAVYYCAAASWKVRKKFDYWGQGTQVTVSS”, “low polyreactivity”.
For the sequence “HVQLVESGGGLVQAGGSLRLSCAASGYIFYVYAMGWYRQAPGKERELVAAINSGDITSYADSVKGRFTISRDNAKNTVYFQMNSLKPEDTAVYYCATVLILIYDYWGQGTQVTVSS”, the “polyreactivity (PSR sort gate)” value is recorded as “low polyreactivity”.
Under “HVQLVESGGGLVQAGGSLRLSFAASASIYQFYPMGWYRPAPGKERELVAGINNSGGSTYYADSVKGRFTISRDNAKNTVYLQMNSLKPEDTAVYYCMARSRYDTGRQRGYDYWGQGTQVTVSS” stands “low polyreactivity”; under “HVQLVESGGGLVQAGGSLRLSSAASGITFYHNAMGWYRQAPGKEMELVAVSSRGGSTYYADSVKGRFTISRDNAKNTVYLQMNSLKPEDTAVYYCNARFWSYRGQVWYYYWGQGTQVTVSS”, “high polyreactivity”.
In the case of “HVQLVESGGGLVQAGRSLRLSCAASGGIFYRYAMGWYRQAPGKEWELVATISRRGGRTYYADSVKGRFTISRDYAKNTVYLQMYSLKPEDTAVDYCAADEWQSGHGLEDDYWGQGTQVTVSS”, the “polyreactivity (PSR sort gate)” value is recorded as “high polyreactivity”.
As for “HVQLVETGGGFVQAGVCLRLSCAASGSIFRVYVMGWYRPATVKERELVAAISHSSGGTYYADSVKWRFTISRDNAKNTVYLQMYSLKPEDTAVYYCAARSRTRRGVHLQPSSRYGSWGQGTQVTVSS”, the entry is “high polyreactivity”.
In the case of “HVQLVQSGGGLVQAGGSSRLSCAASGSIFFFNTMGWYSQAPGKERELVAVITSGGSTYYADSVTGRFRISRDNAKNTVYVQMNSLKPEDPAVYYCAARYLPYRRIKYDYWGQGTQVTVSS”, the “polyreactivity (PSR sort gate)” value is “low polyreactivity”.
As for “HVQRVESGGGLVQAGASLRLSCAASGGIFSYNAMGWYRQAPGKERELVAAISGTGGSTYYADSVKGRFTISRDNAMNTVYLQMNSLKPEDTAVYYCAADVEYKVFPGDYWGQGPQVTVSS”, the entry is “low polyreactivity”; as for “KDQIVQSGAGLVQAGGSLRISCAPSGFIFTYNAMGWYIQAPGKEREIVATITWSGGSTYYADSVKGRFTISRDNAKNTVYLQMYSLNPEDTAVYYCAVDYSRHGYWSPVYVFNYWGQGTKVTVSS”, “low polyreactivity”; as for “KSGGGLVQAGGSLRLSCAASGRIFLEYAMAWYKQAPGKERELFASISWSGDSTYYADSVKGRFTISRDNAKNTVYLQKNSLKPEDTAVYYCNADGQVGNAVSYDYWGQGTQVTVSS”, “low polyreactivity”.
As for “KVQLLESGGGLFQAGGSVRLSCAASGSIIFTYAMGWSRQSPGTEREWVAVITWCGGSTYYADSVKGRFTISRDYAKNTVYLQMNSLKPEDTAVYYCAKDSYYYRRDVTVDYWVQGTQVTVSS”, the “polyreactivity (PSR sort gate)” value is “low polyreactivity”.
Under “KVQLLQTGRGLVQAGGSLRISCAASGRLFWYSDLVWYRQAPGKESELVAAISQRGGSTYYADSVKGSFTISRDNAKNTVYLQMISLKPEDTAGYYCNADFWWAYYPWEYDYWGQGTLVTVSS” stands “high polyreactivity”; under “KVQLVESGGALVQAGGSLRLSCAPSGSIFWNNAMGWYRQAPGKERELVAGISSAGSTNYADSVKGRFTISRDNAKNTVYLQLKSQKPEDTAVYYCAASYFSEYVWLRSYVRYYYWVQGTQVTVSS”, “low polyreactivity”.
Under “KVQLVESGGGLFQAVGSLRLSCADSGRTLGGYAMGWYRQAPGKDRELVAAITSDTGTNYADSVKGRFTISRDNAKNTVYLQMNSLKPEDTAVYYCAAERFYEYDYWGQGTQVTVSS” stands “low polyreactivity”.

For the origin of these results see the nanobody polyreactivity screen of Harvey et al. (2022).
